Measured values from publication PMC12747262 (bioRxiv, 2025).

T1: TTC7B (from the E. coli dimers) (UniProt Q86TV6 1-843)
T1 sequence: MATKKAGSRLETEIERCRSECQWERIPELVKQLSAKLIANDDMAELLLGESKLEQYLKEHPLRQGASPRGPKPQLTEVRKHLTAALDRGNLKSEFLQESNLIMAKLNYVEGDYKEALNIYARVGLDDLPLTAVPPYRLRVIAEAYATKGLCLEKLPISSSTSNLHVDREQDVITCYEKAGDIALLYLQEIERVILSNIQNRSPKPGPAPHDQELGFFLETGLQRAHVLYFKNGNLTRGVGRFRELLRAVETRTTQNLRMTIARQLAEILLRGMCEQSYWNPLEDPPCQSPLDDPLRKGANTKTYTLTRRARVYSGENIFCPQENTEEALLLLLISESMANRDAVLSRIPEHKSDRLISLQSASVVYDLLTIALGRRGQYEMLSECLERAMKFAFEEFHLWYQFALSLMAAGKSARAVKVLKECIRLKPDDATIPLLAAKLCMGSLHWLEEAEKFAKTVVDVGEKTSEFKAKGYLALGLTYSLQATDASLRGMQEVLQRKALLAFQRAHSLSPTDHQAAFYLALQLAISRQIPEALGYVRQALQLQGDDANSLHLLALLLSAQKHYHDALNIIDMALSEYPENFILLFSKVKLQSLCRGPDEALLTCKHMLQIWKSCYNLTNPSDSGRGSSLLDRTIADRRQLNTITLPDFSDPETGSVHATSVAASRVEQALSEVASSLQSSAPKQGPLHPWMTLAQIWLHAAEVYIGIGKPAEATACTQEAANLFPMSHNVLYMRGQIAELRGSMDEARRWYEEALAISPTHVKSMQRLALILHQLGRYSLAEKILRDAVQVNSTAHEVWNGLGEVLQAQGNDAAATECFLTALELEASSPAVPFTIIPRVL

B1: His-tagged MBP-EFR3A (721–791) (domain or fragment)
chain: SNTEEITFEALKKAIDTSGMEEQEKEKRRLVIEKFQKAPFEEIAAQCESKANLLHDRLAQILELTIRPPPS
B2: TTC7B (from the Sf9 PI4KA complex) (natural protein)
chain: T1 sequence
B3: FAM126B (1–308) (from the E. coli dimer) (domain or fragment)
chain: MLGTDRCVVEEWLSEFKALPDTQITSYAATLHRKKTLVPALYKVIQDSNNELLEPVCHQLFELYRSSEVRLKRFTLQFLPELMWVYLRLTVSRDRQSNGCIEALLLGIYNLEIADKDGNNKVLSFTIPSLSKPSIYHEPSTIGSMALTEGALCQHDLIRVVYSDLHPQRETFTAQNRFEVLSFLMLCYNSAIVYMPASSYQSLCRMGSRVCVSGFPRQHEKHWKELCGRIVLDPEFMVQLLTGVYYAMYNGQWDLGQEVLDDIIYRAQLELFSQPLLVANAMKNSLPFDAPDSTQEGQKVLKVEVTPT
B4: FAM126A (1–308) (from the Sf9 complexes) (domain or fragment)
chain: MFTSEKGVVEEWLSEFKTLPETSLPNYATNLKDKSSLVSSLYKVIQEPQSELLEPVCHQLFEFYRSGEEQLLQFTLQFLPELIWCYLAVSASRNVHSSGCIEALLLGVYNLEIVDKQGHTKVLSFTIPSLSKPSVYHEPSSIGSMALTESALSQHGLSKVVYSGPHPQREMLTAQNRFEVLTFLLLCYNAALTYMPSVSLQSLCQICSRICVCGYPRQHVRKYKGISSRIPVSSGFMVQMLTGIYFAFYNGEWDLAQKALDDIIYRAQLELYPEPLLVANAIKASLPHGPMKSNKEGTRCIQVEITPT
B5: FAM126B (1–308) (from the Sf9 dimer) (domain or fragment)
chain: B3 chain
B6: TTC7A (natural protein)
chain: MAAKGAHGSYLKVESELERCRAEGHWDRMPELVRQLQTLSMPGGGGNRRGSPSAAFTFPDTDDFGKLLLAEALLEQCLKENHAKIKDSMPLLEKNEPKMSEAKNYLSSILNHGRLSPQYMCEAMLILGKLHYVEGSYRDAISMYARAGIDDMSMENKPLYQMRLLSEAFVIKGLSLERLPNSIASRFRLTEREEEVITCFERASWIAQVFLQELEKTTNNSTSRHLKGCHPLDYELTYFLEAALQSAYVKNLKKGNIVKGMRELREVLRTVETKATQNFKVMAAKHLAGVLLHSLSEECYWSPLSHPLPEFMGKEESSFATQALRKPHLYEGDNLYCPKDNIEEALLLLLISESMATRDVVLSRVPEQEEDRTVSLQNAAAIYDLLSITLGRRGQYVMLSECLERAMKFAFGEFHLWYQVALSMVACGKSAYAVSLLRECVKLRPSDPTVPLMAAKVCIGSLRWLEEAEHFAMMVISLGEEAGEFLPKGYLALGLTYSLQATDATLKSKQDELHRKALQTLERAQQLAPSDPQVILYVSLQLALVRQISSAMEQLQEALKVRKDDAHALHLLALLFSAQKHHQHALDVVNMAITEHPENFNLMFTKVKLEQVLKGPEEALVTCRQVLRLWQTLYSFSQLGGLEKDGSFGEGLTMKKQSGMHLTLPDAHDADSGSRRASSIAASRLEEAMSELTMPSSVLKQGPMQLWTTLEQIWLQAAELFMEQQHLKEAGFCIQEAAGLFPTSHSVLYMRGRLAEVKGNLEEAKQLYKEALTVNPDGVRIMHSLGLMLSRLGHKSLAQKVLRDAVERQSTCHEAWQGLGEVLQAQGQNEAAVDCFLTALELEASSPVLPFSIIPREL
B7: His-tagged MBP-EFR3B (716–787) (domain or fragment)
chain: VPAEEITYETLKKAIVDSVAVEEQERERRRQVVEKFQKAPFEEIAAHCGARASLLQSKLNQIFEITIRPPPS

Assays:
[1] = molecular target: TTC7A-FAM126B (1–308) heterodimer (UniProt Q9ULT0;Q8IXS8); assay: BLI
[2] = molecular target: TTC7B-FAM126A (1–308) heterodimer (UniProt Q86TV6;Q9BYI3); assay: BLI
[3] = molecular target: TTC7B-FAM126B (1–308) heterodimer (UniProt Q86TV6;Q8IXS8); assay: BLI
[4] = molecular target: TTC7A-FAM126A (1–308) heterodimer (UniProt Q9ULT0;Q9BYI3); assay: BLI
[5] = molecular target: PI4KA-TTC7A-FAM126A (1–308) complex (UniProt P42356;Q9ULT0;Q9BYI3); assay: BLI
[6] = molecular target: PI4KA-TTC7B-FAM126A (1–308) complex (UniProt P42356;Q86TV6;Q9BYI3); assay: BLI
PI4KA [7] = molecular target: T2, PI4KA (UniProt P42356 1-2102); assay: cryo-EM structure
[8] = molecular target: T1, TTC7B (from the E. coli dimers); assay: SEC
TTC7A = molecular target: B6; assay: SEC
PI4KA [9] = molecular target: T2, PI4KA; assay: SEC

B1
Kd [1]: ~0.3 nM | Kd [2]: 0.041 ± 0.025 nM | Kd [3]: ~0.3 nM | Kd [4]: ~0.3 nM | Kd [5]: 0.34 ± 0.13 nM | Kd [6]: 0.043 ± 0.014 nM

B2
binding result (PI4KA [7]): binds

B3
binding result [8]: binds

B4
binding result (TTC7A): binds

B5
binding result (TTC7A): binds

B6
binding result (PI4KA [9]): binds

B7
binding result [1]: binds | Kd [2]: ~0.3 nM | Kd [3]: ~0.3 nM | binding result [4]: binds
